# Measurements published in publication PMC3575800 (Nucleic Acids Research, 2013).
# Key:
# [1] = target: T1, PH domain of the Tfb1 subunit of TFIIH (Tfb1PH; residues 1-115) (S. cerevisiae, UniProt P32776 1-115); test: ITC
# T1 sequence (looked up): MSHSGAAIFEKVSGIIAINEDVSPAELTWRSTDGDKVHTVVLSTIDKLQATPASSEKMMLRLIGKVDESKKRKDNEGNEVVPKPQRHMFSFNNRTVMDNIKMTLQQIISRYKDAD
# [2] = target: T1, PH domain of the Tfb1 subunit of TFIIH …; test: NMR titration
binder,measurement,setting,value
"FYQDEEDDLSDIDWEEVSLDGSL (peptide, UniProt Q06665 41-63, looked up) [Rad34 residues 41-63]",Kd,[1],11 nM
same,stoichiometry N,[1],1
"FYQDEEDDLSDIDSEEVSLDGSL (peptide, UniProt Q06665 41-63, looked up) [Rad34 residues 41-63, W54S mutant]",Kd,[1],> 10000 nM
"RSEDEGCDSDECEWEEVELKPKNVK (peptide, UniProt P07276 359-383, looked up) [Rad2 residues 359-383 (acidic segment of the spacer region of Rad2)]",binding result,[2],binds
"TDDSVEEIQSSEEDYDSEEFEDVTDGNEVAGVEDISVEIK (domain or fragment, S. cerevisiae, UniProt P14736 76-115, looked up) [Rad4 residues 76-115 (acidic segment from the N-terminal region of Rad4)]",Kd,[1],50 nM
same,stoichiometry N,[1],1
"TDDSVEEIQSSEEDYDSEEFEDPTDGNEVAGVEDISVEIK (domain or fragment, S. cerevisiae, UniProt P14736 76-115, looked up) [Rad4 residues 76-115, V98P mutant]",fold reduction of affinity against Rad4 76-115,[1],24 fold
same,stoichiometry N,[1],1
"TDDSVEEIQSSEEDYDSEEPEDVTDGNEVAGVEDISVEIK (domain or fragment, S. cerevisiae, UniProt P14736 76-115, looked up) [Rad4 residues 76-115, F95P mutant]",fold reduction of affinity against Rad4 76-115,[1],50 fold
same,stoichiometry N,[1],1
